In US9068000B2, “Monoclonal antibodies for enhancing or inhibiting insulin-like growth factor-I” (The University of North Carolina at Chapel Hill, priority 2004, dated 2015):
No end group written: not given here.

How the values were obtained:
[1] = test system: β3 phosphorylation; experiment: β3 phosphorylation, SHP-2 transfer and enhancement of IGF-I receptor activation; format: cell-based
Text: (§1) Modification of IGF-I actions. […] These assays include but are not totally limited to the following: β3 subunit phosphorylation, β3 binding to SHPS-1, and integrin associated protein (IAP) as a complex, the association of IAP with SHPS-1, SHPS-1 phosphorylation and Shc recruitment to SHPS-1, Shc phosphorylation, stimulation of DNA synthesis and cell replication or cell migration. Ligands that bind to β3 through the cysteine loop domain often induce both conformational changes and β3 phosphorylation. Similarly, stimulation of β3 phosphorylation can induce a conformational change in β3 secondarily. β3 phosphorylation is measured by applying the compound that binds to β3 to smooth muscle and endothelial cells in culture. […] The lysates are either analyzed directly by immunoblotting for β3 to measure […] or immunoprecipitated with an anti β3 antibody and then immunoblotted for phosphotyrosine. Immunoblotting is analyzed following separation of the proteins contained in 30 μl of cell lysate by SDS polyacrylamide gel electrophoresis (SDS-PAGE). […] The amount of phosphorylated β3 is then determined by SDS-PAGE followed by immunoblotting with a monoclonal anti-phosphotyrosine antibody (PY99) (Ling Y, Maile L A, Clemmons D R, Mol Endocrinol, 17:1824-1833 (2003)).

[2] = target: αVβ3 integrin (Homo sapiens, UniProt P05106); experiment: Binding of peptides/ligands to the cysteine loop region of αVβ3
αVβ3 integrin, sequence (P05106 27-788): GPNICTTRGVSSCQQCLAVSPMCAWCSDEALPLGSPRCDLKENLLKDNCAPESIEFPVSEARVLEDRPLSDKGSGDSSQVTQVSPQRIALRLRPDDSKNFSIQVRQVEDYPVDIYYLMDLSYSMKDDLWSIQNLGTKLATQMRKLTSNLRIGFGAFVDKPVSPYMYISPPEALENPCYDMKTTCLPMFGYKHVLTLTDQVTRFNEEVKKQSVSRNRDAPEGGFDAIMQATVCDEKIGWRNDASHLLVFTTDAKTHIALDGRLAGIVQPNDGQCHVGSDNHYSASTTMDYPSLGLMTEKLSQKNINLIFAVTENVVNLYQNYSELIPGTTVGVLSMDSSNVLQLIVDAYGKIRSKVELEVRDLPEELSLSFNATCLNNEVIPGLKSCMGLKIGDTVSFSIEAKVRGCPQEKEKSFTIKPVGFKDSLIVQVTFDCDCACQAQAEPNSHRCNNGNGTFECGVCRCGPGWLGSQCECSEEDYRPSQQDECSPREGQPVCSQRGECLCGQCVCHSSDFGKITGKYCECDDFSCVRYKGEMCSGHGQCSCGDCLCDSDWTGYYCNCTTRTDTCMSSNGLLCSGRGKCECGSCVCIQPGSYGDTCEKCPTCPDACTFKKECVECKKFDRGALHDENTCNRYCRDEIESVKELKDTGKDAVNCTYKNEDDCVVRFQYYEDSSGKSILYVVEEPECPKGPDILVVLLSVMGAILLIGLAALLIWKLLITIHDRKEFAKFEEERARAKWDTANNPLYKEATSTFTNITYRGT
αVβ3 integrin, sequence (P06756 31-889 partner limits assumed): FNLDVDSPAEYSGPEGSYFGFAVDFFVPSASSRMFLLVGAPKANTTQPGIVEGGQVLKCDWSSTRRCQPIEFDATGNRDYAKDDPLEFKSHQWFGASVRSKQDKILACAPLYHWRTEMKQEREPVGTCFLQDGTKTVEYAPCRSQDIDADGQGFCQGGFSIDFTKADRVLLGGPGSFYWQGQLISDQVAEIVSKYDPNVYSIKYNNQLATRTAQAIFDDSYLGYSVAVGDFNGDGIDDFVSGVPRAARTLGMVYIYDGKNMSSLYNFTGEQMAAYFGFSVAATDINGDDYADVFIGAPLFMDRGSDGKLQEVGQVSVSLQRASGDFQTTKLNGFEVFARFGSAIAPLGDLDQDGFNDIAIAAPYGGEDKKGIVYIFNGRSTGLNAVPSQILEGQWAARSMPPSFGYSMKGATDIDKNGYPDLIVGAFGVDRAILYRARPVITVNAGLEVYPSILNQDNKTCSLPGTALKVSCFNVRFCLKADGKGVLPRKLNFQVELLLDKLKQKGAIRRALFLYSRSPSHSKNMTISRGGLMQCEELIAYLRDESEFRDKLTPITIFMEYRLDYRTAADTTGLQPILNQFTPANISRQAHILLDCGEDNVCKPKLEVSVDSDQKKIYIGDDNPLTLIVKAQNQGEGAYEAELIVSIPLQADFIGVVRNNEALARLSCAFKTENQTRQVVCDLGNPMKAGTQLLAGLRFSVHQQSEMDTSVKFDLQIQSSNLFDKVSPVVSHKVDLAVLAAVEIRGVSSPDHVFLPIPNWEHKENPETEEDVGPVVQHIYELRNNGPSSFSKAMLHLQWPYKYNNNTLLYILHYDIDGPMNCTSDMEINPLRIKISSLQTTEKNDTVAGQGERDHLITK
αVβ3 integrin, sequence (P06756 891-1048 partner limits assumed): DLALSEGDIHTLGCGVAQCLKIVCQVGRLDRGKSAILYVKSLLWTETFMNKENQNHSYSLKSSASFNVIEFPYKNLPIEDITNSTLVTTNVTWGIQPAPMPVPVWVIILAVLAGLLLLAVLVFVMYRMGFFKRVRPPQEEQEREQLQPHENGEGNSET
Text: As noted above, the agonists bind to a specific region on the αVβ3 integrin receptor that has not been identified previously as a region that would result in receptor activation. All agonists that we have determined to bind in this region contain a region of sequence that is commonly termed a heparin binding domain. This heparin binding domain is present in 5 ligands that we have found to date that bind to this region of αVβ3. The documentation that they bind to a specific region of αVβ3 has been provided by two types of experiments. First we have a polyclonal antibody that is known to react with this region of αVβ3, which is the region of the β3 subunit that is located between amino acids at positions 177 and 183.
A more definitive experiment was conducted in which the identical region of the β1 integrin was substituted by mutagenesis for this […] amino acid region within β3. […] Binding assays were then conducted using these ligands.

[3] = test system: IGF-I; experiment: IGF-I biologic actions (DNA synthesis, cell migration, protein synthesis); format: cell-based
Protocol: Cell Replication. Smooth muscle and/or endothelium are plated at relatively low density, 10^4/cm^2 in low serum (0.2%) containing medium. 24 hr after plating, cells are quiesced in 0.2% platelet poor plasma containing medium. 24 hr later the cultures are exposed to increasing concentrations of IGF-I between 0 and 100 ng/ml and the β3 agonists or antagonists. After 48 hr, the cell cultures are stained with trypan blue and the cell number is determined by manual counting. If β3 is occupied by an agonist then there is at least a 2 fold increase in cell number over this time period. Whereas if an antagonist is added there is often less than 20% increase in cell number.
Cell Migration. Confluent quiescent smooth muscle or endothelial cell cultures are wounded with a razor blade as described in Maile L A, Imai Y, Clarke J B, Clemmons D R, J. Biol. Chem., 277:1800-1805 (2002). The wounds are examined to determine that a straight edge has been obtained and there are no grooves in the plate. At least five areas that are correctly wounded are then identified with a color marker. IGF-I is added at concentrations of either 50 or 100 ng/ml and various concentrations of the angonists or antagonists are added to at least duplicate cultures. After 72 hr the number of cells that have migrated at least 50 microns from the wound edge are determined and counted following staining with methylene blue. […]

[4] = test system: IGF-I receptor; experiment: Activation of the IGF-I receptor by IGF-I; format: cell-based
Text: as §1

Molecule | binding to αVβ3 / β3 cysteine loop region [2] | also measured
KKQRFRHR (AlphaV beta3 binding sequence from vitronectin) |  | stimulation of β3 phosphorylation, SHP-2 transfer to downstream signaling molecules and enhancement of IGF-I receptor activation in response to IGF-I [1]: full stimulation
heparin binding epidermal growth factor | shown to bind | 
osteopontin | shown to bind | 
KKQRFRHL (Synthetic IGF-I antagonist) [IGF-I antagonist peptide] |  | inhibitory activity on IGF-I actions in biologic assays [3]: inhibitory activity; inhibition of activation of the IGF-I receptor by IGF-I [4]: approximately 60%
cyclized peptide containing this sequence: a cyclized peptide containing the sequence KKQRFRHL (also: cyclized, mode and places not given here) |  | inhibitor potency compared with linear KKQRFRHL [3]: more potent inhibitor

Now from value to molecule, other results behind:

binding to αVβ3 / β3 cysteine loop region [2] | Molecule | also measured
shown to bind | vitronectin | 
shown to bind | insulin-like binding protein-5 (RKGFYKRK) [IGFBP-5] | 
shown to bind | connective tissue growth factor (protein) QNCSGPCRCPDEPAPRCPAGVSLVLDGCGCCRVCAKQLGELCTERDPCDPHKGLFCHFGSPANRKIGVCTAKDGAPCIFGGTVYRSGESFQSSCKYQCTCLDGAVGCMPLCSMDVRLPSPDCPFPRRVKLPGKCCEEWVCDEPKDQTVVGPALAAYRLEDTFGPDPTMIRANCLVQTTEWSACSKTCGMGISTRVTNDNASCRLEKQSRLCMVRPCEADLEENIKKGKKCIRTPKISKPIKFELSGCTSMKTYRAKFCGVCTDGRCCTPHRTTTLPVEFKCPDGEVMKKNMMFIKTCACHYNCPGDNDIFESLYYRKMYGDMA | 
